Test results as given in the RNAGym collection of RNA variant scans (doi:10.1073/pnas.2313332121).

B1: TPR t1 (parent)
chain: GACCAAUCUGCCCUCAGAGCUCGAGAACAUCUUCGGAUGCAGAGGAGGCAGGCUUCGGUGGCGCGAUAGCGCCAACGUCCUCAACCUCCAAUGCAUCCCACCACAUGAUGAUGCCUGAAGAGCCUUGGUUUUUUG

Variants of: B1
Experiment: polymerase ribozyme fitness, log enrichment relative to wild type (log ratio); higher = more active; in vitro selection for triplet polymerase activity
Method in brief: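 Fitness measures genotype enrichment against wild-type enrichment on a logarithmic scale, with inverse-variance-weighted averaging of replicates. The logarithm is base 2, and genotypes were kept only with ≥10 input reads and ≥1 read per output in Illumina sequencing. The sequenced libraries came from one triplicate in vitro selection round, including frozen incubation at −7 °C, of PCR-built, transcribed mutant libraries of each subunit of a heterodimeric triplet polymerase ribozyme.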

Q: Which “polymerase ribozyme fitness (log ratio)” value does the source give for GACCAAUCUGCCCUCAGAGCUCGAGAACAUCUUCGGAUGCAGAGGAGGCAGGCUUCGGUAGCGCGAUAGCGCCAACGUCCUCAACCUCCAAUGCAUCCCACCACAUUAUGAUGCCUGAAGAGCCUUGGUUUUUUG [G60A G107U] here?
A: -4.12

Q: Which “polymerase ribozyme fitness (log ratio)” value does the source give for GACCAAUCUGCCAUCAGAGCUCGAGAACAUCUUCGGAUGCAGAGGAGGCAGGCUUCGGUGGCGCGAUAGCGCCAACGUGCUCAACCUCCAAUGCAUCCCACCACAUGAUGAUGCCUGAAGAGACUUGGGUUUUUG [C13A C79G C123A U129G] here?
A: -3.45

Q: With GACCAAUCUGCCCUCAGAGCUCGAGAACAUCUUCGGAUGCAGAGGAGGCAGGCUUCGGUGGCGCGAUAGCGCCAUCGUCCUCAACCUCCAAUGCAUCCCACCACAUGAUGAUGCCUCAAGAGCCUUGGUUUUUUG [A75U G117C] as the variant, how does the “polymerase ribozyme fitness (log ratio)” value read?
A: -3.99

Q: Which “polymerase ribozyme fitness (log ratio)” value does the source give for GACCAAUCUGCCCGCAGAGCUCGAGAACAUCUUCGGAUGCAGAGGAGGAAGGCUUCGGUGGCGCGAUAGCGCCAACGUCCUCAACCUCCAAUGCAACCCACCACAUGAUGAUGCCUGAAGAGCCUUGGUUUUUUG [U14G C49A U96A] here?
A: -3.85

Q: For GACCAAUCGGCCCUCAGAGCUCGAGAACAUCUUCGGAUGCAGAGGAGGCAAGCUUCGGUGGCGCGAUAGCGCCAACGUCCUCAACCUCCAAUGCAUCCCACCACAUGAUGAUGCCUGAAGAGCCUUGGUUUUUUG [U9G G51A], which “polymerase ribozyme fitness (log ratio)” value is on record?
A: -1.96

Q: Which “polymerase ribozyme fitness (log ratio)” value does the source give for GACCAAUCUGCCCUCAAAGCUCGAGAACAUCUUCGGAUGCCGUCGAGGCAGGCUUCGGUGGCGCGAUAGCGCCAACGUCCUCAACCUCCAAUGCAUCCCACCACAUGAUGAUGCCUGAAGAGCCUUGGUUUUUUG [G17A A41C A43U G44C] here?
A: -5.92

Q: For GACCAAUCUGCUCUCAGAGCUCGAGAACAUCUUCGGAUGUAGAGGAGGCAGGCUUCGGUGGCGCGAUAGCGCCAACGUCCUCAACCUCCAAUGCAUCCCACCAAAUGAUGAUGCCUGAAGAGCCUUGGUUUUUUG [C12U C40U C104A], which “polymerase ribozyme fitness (log ratio)” value is on record?
A: -2.12

Q: For GACCAAUCUGCCCUCAGAGCUCGAGAACAUCUUCGGAUGAAGAGGAGGCAGGCUUCGGUAGCGCGAUAGCGCCAACGUCCUCAACCUCCAAUGCAUCCCACCACAUGAUGAUGCCUGAAGAGCCUUGGUUUUUUG [C40A G60A], which “polymerase ribozyme fitness (log ratio)” value is on record?
A: -1.03

Q: Which “polymerase ribozyme fitness (log ratio)” value does the source give for GACCAAUCGGCCCUCAGAGCUCGAGAACAUCUUCGGAUGUAGAGGAGGCAGGCAUCGGUGGCGCGAUAGCGCCAACGUCCUCAAACUCCAAUGCAUCCCACCACAUGAUGAUGCCUGAAGAGCCUUGGUUUUUUG [U9G C40U U54A C85A] here?
A: -1.24

Q: Which “polymerase ribozyme fitness (log ratio)” value does the source give for GACCAAUCUGCCCUCAGAGCUCGAGAACAUCUUCGGAUGCAGAUGAGGCAGGCUUCGGUGGCGCGAUAGCGCCAACGUCCUCAACCCCCAAUGCAUCCCACCACACGAUGAUGCCUGAAGAGCCUUGGUUUUUUG [G44U U87C U106C] here?
A: -1.29

Q: For GACCAAUCUGCCCACAGAGCUCGAGAACAUCUUCGGAUGCAGAGGAGGCAGGCUUCGGUGGCUCGAUAGCGCCAACGUUCUCAACCUCCAAUGCAUCCCACCACAUGAUGAUGCCUGAAGAGCCUUGGUUUUUUG [U14A G63U C79U], which “polymerase ribozyme fitness (log ratio)” value is on record?
A: -3.41

Q: With GACCAAUCUGCCCUCAGAGCUCGAGAACAUCUUCGGAUGCAGAGGAGGCAGGCUUCGGUUGCGCGAUAGCGCCAACGUCCUCAACCUCCAAUGCAUCCCACCACAUGAUGAUGCCUGAAGAGCCUUGGUUUCUUG [G60U U132C] as the variant, how does the “polymerase ribozyme fitness (log ratio)” value read?
A: -0.354

Q: For GACCAAUUUGCCCUGAGAGCUCGAGAACAUCUUCGGUUGCAGAGGAGGCAGGCUUCGGUGGCGCGAUAGCGCCAACGUCCUCAACCUCCAAUGCAUCCCACCACAUGAUGAUGCCUGAAGAGCCUUGGUUUUUUG [C8U C15G A37U], which “polymerase ribozyme fitness (log ratio)” value is on record?
A: -1.75

Q: For GACCAAUCUGCCUUCAGAGCUCGAGAACAUCUUCGGAUGCAUAGGAGACAGGCUUCGGUGGCGCGAUAGCGCCAACGUCCUCAACCUCCAAUGCAUCCCACCACAUGAUGAUGCCUGAAGAGCCUUGGUUUUUUG [C13U G42U G48A], which “polymerase ribozyme fitness (log ratio)” value is on record?
A: -1.13

Q: For GACCAAUCUGCCCUCAGAGCUCGAGAACAUCUUCGGAUGCAGAGGAGGCAGGCUUCGGUGGCGCGAUAGCGCCAACGUCCUCAACCUCCGAUGCAUCCCACCACAUGAUGAUGCCUGAAGAGCCUUGGUUUUUUG [A90G], which “polymerase ribozyme fitness (log ratio)” value is on record?
A: 0.347

Q: With GACCAGUCUGCUCUCAGAGCUCGAGAACAUCUUCGGAUGCAGAGGAGGCUGGCGUCGGUGGCGCGAUAGCGCCAACGUCCUCAACCUCCAAUGCAUCCCCCCACAUGAUGAUGCCUGAAGAGCCUUGGUUUUUUG [A6G C12U A50U U54G A100C] as the variant, how does the “polymerase ribozyme fitness (log ratio)” value read?
A: -6.08

Q: With GACCAAUCUGCCCUCAGAGCUCGAGAACAUCUUCGGAUGCAGAGGAGGCGGGCUUCGGUGGCGCGAUAGCGCCAACGUCCUCAACCUCCAAUGCAUCCCACCACAUGAUGAUUCCUGAAGAGCCUUGGUUUUUUG [A50G G113U] as the variant, how does the “polymerase ribozyme fitness (log ratio)” value read?
A: -2.68

Q: Which “polymerase ribozyme fitness (log ratio)” value does the source give for GACCAAUGUGUCCUCAGAGCUCGAGAACAUCUUCGGAUGCAGAGGAGGCAGGCUUCGGAGGAUCGAUAGCGCCAACGUCCUCAACCUCCAAUGCAUCCCACCACAUGAUGAUGCCUGAAGAGCCUUGGUUUUUUG [C8G C11U U59A C62A G63U] here?
A: -5.8

Q: With GACCAAUCUGCCCUCAGUGGUCGAGAACAUCUUCGGAUGCAGAGGAGGCAGGCUUCGGUGGCGCGAUAGCGCCAACGUCCUCAACCUCCAAUGCAUCCCACCACAUGAUGAUGCCUGAAGAGCCUUGGUUUUUUG [A18U C20G] as the variant, how does the “polymerase ribozyme fitness (log ratio)” value read?
A: -4.36

Q: Which “polymerase ribozyme fitness (log ratio)” value does the source give for GACCAAUCUGCCCUCAGAGCUCGAGAACAUCUUCGGAUGCUGAGGAGGCAGGCUUCGGUGGCGCGAUAGCGCGAACGUCCUCAACCUCCAAUGCAUCCCACCCCAUGAUGAUGCCUGAAGAGCCUUGGUUUUUUG [A41U C73G A103C] here?
A: -6.66

Q: Which “polymerase ribozyme fitness (log ratio)” value does the source give for GACCAAUCUGCACUCAGAGCUCGAGAACAUCUUCGGAUGCAGAGGAGGCAGGCUUCGGUGGCACGAUAGCGCCAACGUCCUCAACCUCCAAUGCAUCCCACCACAUGAUGAUGCCUGAAGAGCCUUGGUUUUUUG [C12A G63A] here?
A: -1.5
